Results published in US20240109974A1 (SHANDONG SIMCERE BIOPHARMACEUTICAL, published 2024).

T1: Cynomolgus TNFR2-His (Sino 90102-C08H) (cynomolgus monkey, UniProt A0A2K5VET2 132-366)
T1 construct: Bought protein; also called cynomolgus monkey TNFR2; recombinant cynomolgus monkey TNFR2 protein; not shown: His tag
T1 sequence: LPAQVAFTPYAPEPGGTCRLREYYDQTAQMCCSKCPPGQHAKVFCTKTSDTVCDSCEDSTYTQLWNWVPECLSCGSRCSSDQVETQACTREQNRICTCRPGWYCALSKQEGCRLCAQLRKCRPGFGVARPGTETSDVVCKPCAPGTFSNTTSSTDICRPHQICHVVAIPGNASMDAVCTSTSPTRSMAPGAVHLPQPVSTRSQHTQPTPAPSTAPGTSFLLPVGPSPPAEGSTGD

T2: Human TNFR2-His (Sino 10417-H08H) (human, UniProt P20333 23-257)
T2 construct: Bought protein; also called recombinant human TNFR2 protein; not shown: His tag
T2 sequence (looked up): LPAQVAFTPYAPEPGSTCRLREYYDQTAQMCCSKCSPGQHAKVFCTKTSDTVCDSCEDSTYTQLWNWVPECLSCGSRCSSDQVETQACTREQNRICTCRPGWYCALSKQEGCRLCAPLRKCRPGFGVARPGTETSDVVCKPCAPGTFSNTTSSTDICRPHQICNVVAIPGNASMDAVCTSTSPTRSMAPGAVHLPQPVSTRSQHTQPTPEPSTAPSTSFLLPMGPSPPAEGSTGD

T3: human TNFR2 on the surface of CHO-TNFR2 cells (human, UniProt P20333 23-461)
T3 construct: whole, on cells
T3 sequence (looked up): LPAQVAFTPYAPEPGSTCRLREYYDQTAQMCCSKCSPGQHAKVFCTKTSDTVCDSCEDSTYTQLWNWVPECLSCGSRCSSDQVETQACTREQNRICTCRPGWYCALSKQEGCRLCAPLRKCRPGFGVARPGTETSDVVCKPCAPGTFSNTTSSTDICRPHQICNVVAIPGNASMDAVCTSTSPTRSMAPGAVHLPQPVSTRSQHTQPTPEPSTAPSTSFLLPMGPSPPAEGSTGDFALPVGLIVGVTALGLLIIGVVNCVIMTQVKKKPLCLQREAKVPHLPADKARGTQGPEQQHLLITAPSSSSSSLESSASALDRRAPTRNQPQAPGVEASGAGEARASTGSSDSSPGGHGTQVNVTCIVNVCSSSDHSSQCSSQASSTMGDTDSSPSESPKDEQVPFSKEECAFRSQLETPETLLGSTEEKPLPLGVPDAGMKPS

B1: 219-WT (antibody, V domains shown)
VH: EVQLQESGAELVRPGASVKLSCKASGYSFTNYWMNWVKQRPGQGLEWIGMIHPSDTETRLNQNFKDKATLTVDKSSSTSYMQLSSPTSEDSAVYYCARGEGLGAARSVSMDYWGQGTTVTVSS
VL: DILMTQSPSSLSASLGDRVTISCRASQDISNYLNWYQQKPDGTVKVLIYYTAILHSGVPSRFSGSGSGTDYSLTISNLEQEDIATYFCQQGNTLPWTFGGGTKLEIK
notes: Human-murine chimeric wild-type molecule
B2: 224-WT (antibody, V domains shown)
VH: EVQLQESGPEIVKPGASVKLSCTASGFNNKDIYMHWVKQRPEQGLEWIGRIDPATGNTKHDPKFQDKATLSSDTSSNTAYLQFSSLTSEDTAVYYCAHSPYGDFGAMDYWGQGTTVTVSS
VL: DIQMTQSPAIMSASLGERVTMTCTASSSVSSNYLHWYQQKPGSSPKLWIYSTSNLPSGVPARFSGSGSGTSYSLTISSMEAEDAATYYCHQYHRSPWTFGGGTKLEIK
notes: Human-murine chimeric wild-type molecule; also called human-murine chimeric antibody WT of #224
B3: 001-WT (antibody, V domains shown)
VH: EVQLQESGGGLVQPGGSLNLSCAASGFAFSTYDLSWVRQTPEKRLEWVAYINNGGISTYYSDTVKGRFTISRDNAKNTLYLQMSSLKSEDTAMYYCVRGPFYGSANYFDYWGQGTTVTVSS
VL: EIVMTQSPASLSLSVGETVTITCRTSESIYSNLPWYQQKQGKSPQLLVYDATKLAEGVPSRFSGSESGTQYSLKINSLQSEDFGTYYCQHFWVTPWTFGGGTKLEIK
notes: Human-murine chimeric wild-type molecule; also called human-murine chimeric antibody WT of #001
B4: 001-Hu5 (antibody, V domains shown)
VH: EVQLVESGGGLVQPGGSLRLSCAASGFAFSTYDLSWVRQAPGKGLEWVAYINNGGISTYYSDTVKGRFTISRDNAKNTLYLQMNSLRAEDTAVYYCVRGPFYGSANYFDYWGQGTLVTVSS
VL: DIQMTQSPSSLSASVGDRVTITCRTSESIYSNLPWYQQKPGKSPKLLVYDATKLAEGVPSRFSGSGSGTDYTLTISSLQPEDFATYYCQHFWVTPWTFGQGTKVEIK
notes: Humanized form of #001; also called VH1 + VL4
B5: 001-Hu4 (antibody, V domains shown)
VH: EVQLVESGGGLVQPGGSLRLSCAASGFAFSTYDLSWVRQAPGKGLEWVAYINNGGISTYYSDTVKGRFTISRDNAKNSLYLQMNSLRAEDTAVYYCVRGPFYGSANYFDYWGQGTLVTVSS
VL: DIQMTQSPSSLSASVGDRVTITCRTSESIYSNLPWYQQKPGKSPKLLVYDATKLAEGVPSRFSGSGSGTDYTLTISSLQPEDFATYYCQHFWVTPWTFGQGTKVEIK
notes: Humanized form of #001; also called VH2 + VL4
B6: 001-Hu1 (antibody, V domains shown)
VH: EVQLVESGGGLVQPGGSLRLSCAASGFAFSTYDLSWVRQAPGKGLEWVAYINNGGISTYYSDTVKGRFTISRDNAKNTLYLQMNSLRAEDTAVYYCVRGPFYGSANYFDYWGQGTLVTVSS
VL: DIQMTQSPSSLSASVGDRVTITCRTSESIYSNLPWYQQKPGKAPKLLLYDATKLAEGVPSRFSGSGSGTDYTLTISSLQPEDFATYYCQHFWVTPWTFGQGTKVEIK
notes: Humanized form of #001; also called VH1 + VL1
B7: 001-Hu2 (antibody, V domains shown)
VH: EVQLVESGGGLVQPGGSLRLSCAASGFAFSTYDLSWVRQAPGKGLEWVAYINNGGISTYYSDTVKGRFTISRDNAKNSLYLQMNSLRAEDTAVYYCVRGPFYGSANYFDYWGQGTLVTVSS
VL: DIQMTQSPSSLSASVGDRVTITCRTSESIYSNLPWYQQKPGKSPKLLIYDATKLAEGVPSRFSGSGSGTDFTLTISSLQPEDFATYYCQHFWVTPWTFGQGTKVEIK
notes: Humanized form of #001; also called VH2 + VL2
B8: 001-Hu3 (antibody, V domains shown)
VH: EVQLVESGGGLVQPGGSLRLSCAASGFAFSTYDLSWVRQAPGKGLEWVAYINNGGISTYYSDTVKGRFTISRDNAKNTLYLQMNSLRAEDTAVYYCVRGPFYGSANYFDYWGQGTLVTVSS
VL: DIQMTQSPSSLSASVGDRVTITCRTSESIYSNLPWYQQKPGKAPKLLIYDATKLAEGVPSRFSGSGSGTDYTLTISSLQPEDFATYYCQHFWVTPWTFGQGTKVEIK
notes: Humanized form of #001; also called VH1 + VL3

Key:
[1] = molecular target: T1, Cynomolgus TNFR2-His (Sino 90102-C08H); assay: ELISA, plate coated with Cynomolgus TNFR2-His, detection with anti-human IgG Fc-HRP [panel B]
Experimental: (§1) The test humanized antibody against TNFR2 (as described in Example 1, the antibody was comprised of variable regions linked to IgG-Fc; the WT chimeric antibody also adopted the IgG-Fc structure) was subjected to 3.33-fold gradient dilution, loaded with 100 μl/well, and incubated with shaking at room temperature for 1.5 hours. The plate was washed, and then a working solution of murine anti-human IgG Fc-HRP (diluted at 1:10000) was added, loaded with 100 μl/well, and incubated with shaking at room temperature for 1.0 hour. The plate was washed again, and then the substrate TMB of HRP was added to develop colour. A stop solution was added to stop the reaction, and then a microplate reader (MD 13) was used to read the absorbance value. The binding curve of an antibody was drawn with antibody concentration as the abscissa and corresponding OD value as the ordinate, and fitted with four parameters (GraphPad Prism9) to calculate the EC50 value. The smaller the EC50 value, the stronger the binding ability of an antibody to human/cynomolgus monkey TNFR2. The binding effect of a humanized antibody was normalized to its corresponding human-murine chimeric antibody WT (see SEQ ID NOs: 38-43 for the sequence). The higher the percentage value, the better the binding effect of the humanized antibody. […]

[2] = molecular target: T2, Human TNFR2-His (Sino 10417-H08H); assay: ELISA, plate coated with Human TNFR2-His, detection with anti-human IgG Fc-HRP [panel C]
Experimental: as §1

[3] = molecular target: T1, Cynomolgus TNFR2-His (Sino 90102-C08H); assay: ELISA, plate coated with Cynomolgus TNFR2-His, detection with anti-human IgG Fc-HRP [panel C]
Experimental: as §1

[4] = molecular target: T3, human TNFR2 on the surface of CHO-TNFR2 …; assay: flow cytometry competition: antibody titrated on CHO-TNFR2 cells, then human TNFα-biotin, detection with PE-streptavidin [panel C]
Experimental: CHO stable cells highly expressing human TNFR2 were used for the experiment (the same as CHO-TNFR2 in Example 4). The CHO-TNFR2 cells were digested, washed twice with DPBS, then stained with Live/Dead (L/D) (20 minutes at room temperature), and plated at a density of 1×10⁵ cells/50 μl/well. A test anti-TNFR2 antibody was diluted to 6 μg/ml with a staining buffer as the starting concentration: the antibody was subjected to 3.33-fold gradient dilution, with a total of 7 concentration points. The diluted antibody was added to the plated cells at 50 μl/well, and the mixture was mixed well by gentle pipetting, and incubated at 4° C. for 30 minutes. Then the diluted 100 ng/ml of human TNFα-biotin was added at 100 μl/well, and the mixture was mixed well by gentle pipetting, and then incubated at 4° C. for 30 minutes. The mixture was washed twice with a staining buffer, and then 0.12 μg/ml PE-streptavidin (BioLegend, Cat #405204) was added at 100 μl/well; the resulting mixture was incubated at 4° C. for 30 minutes. The mixture was washed twice with a staining buffer, and then 150 μl of staining buffer was added to resuspend the cells; signals were detected by a flow cytometer (Thermo Attune NxT). […]

[5] = molecular target: T2, Human TNFR2-His (Sino 10417-H08H); assay: ELISA, plate coated with Human TNFR2-His, detection with anti-human IgG Fc-HRP [panel A]
Experimental: as §1

[6] = molecular target: T2, Human TNFR2-His (Sino 10417-H08H); assay: ELISA, human TNFR2-His coated; EC50 against 001-WT
Experimental: The test humanized antibody against TNFR2 (as described in Example 1, the antibody was comprised of variable regions linked to IgG-Fc; the WT chimeric antibody also adopted the IgG-Fc structure) was subjected to 3.33-fold gradient dilution, loaded with 100 μl/well, and incubated with shaking at room temperature for 1.5 hours. The plate was washed, and then a working solution of murine anti-human IgG Fc-HRP (diluted at 1:10000) was added, loaded with 100 μl/well, and incubated with shaking at room temperature for 1.0 hour. The plate was washed again, and then the substrate TMB of HRP was added to develop colour. A stop solution was added to stop the reaction, and then a microplate reader (MD 13) was used to read the absorbance value. The binding curve of an antibody was drawn with antibody concentration as the abscissa and corresponding OD value as the ordinate, and fitted with four parameters (GraphPad Prism9) to calculate the EC50 value. The smaller the EC50 value, the stronger the binding ability of an antibody to human/cynomolgus monkey TNFR2. The binding effect of a humanized antibody was normalized to its corresponding human-murine chimeric antibody WT (see SEQ ID NOs: 38-43 for the sequence). The higher the percentage value, the better the binding effect of the humanized antibody. The results of binding of an anti-TNFR2 antibody to a human TNFR2 protein are shown in FIG. 1 and Table 4, and the results of binding of an anti-TNFR2 antibody to cynomolgus monkey TNFR2 are shown in FIG. 2 and Table 4.

Binder | % Relative activity (WT antibody/test antibody) [6] | further results
B1 |  | EC50 (read off the curve) [1]: ~10 ng/mL
B2 |  | EC50 (read off the curve) [2]: ~10 ng/mL; EC50 (read off the curve) [3]: ~10 ng/mL; IC50 (read off the curve) [4]: ~50 ng/mL
B3 |  | EC50 (read off the curve) [5]: ~10 ng/mL
B4 | 100% | 
B5 | 109% | 
B6 | 104% | 
B7 | 102% | 
B8 | 101% | 
